In assay [1] the target is human DNA polymerase delta (human) (UniProt P28340). Put plainly: cell-based or functional assay.
In assay [2] the target is E. coli Pol III (Escherichia coli) (UniProt P10443). Put plainly: cell-based or functional assay.
Assay [3] has as its target T1, Aquifex aeolicus α subunit of DNA polymerase III (Aquifex aeolicus, UniProt O67125 1-1161).
T1 construct: Recombinant, expressed in E. coli from pETAadnaE (pET24); also called A.ae. α; Aquifex α
T1 sequence: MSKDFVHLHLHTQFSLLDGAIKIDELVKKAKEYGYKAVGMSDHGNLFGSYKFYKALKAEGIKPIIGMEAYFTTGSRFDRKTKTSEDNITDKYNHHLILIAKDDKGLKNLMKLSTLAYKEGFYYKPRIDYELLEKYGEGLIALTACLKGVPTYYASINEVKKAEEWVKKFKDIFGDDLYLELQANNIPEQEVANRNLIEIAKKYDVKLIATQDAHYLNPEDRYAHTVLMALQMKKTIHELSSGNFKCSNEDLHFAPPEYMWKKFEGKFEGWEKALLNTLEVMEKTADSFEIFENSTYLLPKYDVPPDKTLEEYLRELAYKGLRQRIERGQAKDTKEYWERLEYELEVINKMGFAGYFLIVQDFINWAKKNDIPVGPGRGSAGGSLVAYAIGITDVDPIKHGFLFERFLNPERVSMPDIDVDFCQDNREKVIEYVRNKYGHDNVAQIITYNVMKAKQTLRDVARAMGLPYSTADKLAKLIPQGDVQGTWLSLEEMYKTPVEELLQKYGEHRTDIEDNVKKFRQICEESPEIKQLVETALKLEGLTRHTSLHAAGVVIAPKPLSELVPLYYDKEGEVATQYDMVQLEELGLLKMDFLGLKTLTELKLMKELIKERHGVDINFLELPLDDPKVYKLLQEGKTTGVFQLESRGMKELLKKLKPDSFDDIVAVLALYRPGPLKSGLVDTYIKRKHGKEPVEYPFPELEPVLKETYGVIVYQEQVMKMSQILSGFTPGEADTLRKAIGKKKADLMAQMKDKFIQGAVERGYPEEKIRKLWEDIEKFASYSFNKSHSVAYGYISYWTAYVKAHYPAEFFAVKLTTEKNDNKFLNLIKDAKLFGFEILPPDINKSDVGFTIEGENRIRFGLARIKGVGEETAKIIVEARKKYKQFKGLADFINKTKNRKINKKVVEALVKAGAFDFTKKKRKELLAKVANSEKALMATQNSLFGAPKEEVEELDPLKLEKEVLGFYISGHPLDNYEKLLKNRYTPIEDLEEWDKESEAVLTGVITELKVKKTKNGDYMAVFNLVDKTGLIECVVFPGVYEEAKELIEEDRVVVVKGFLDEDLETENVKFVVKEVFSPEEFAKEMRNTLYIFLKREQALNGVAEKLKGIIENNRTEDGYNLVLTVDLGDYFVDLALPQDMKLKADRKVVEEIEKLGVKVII
Put plainly: complex constitution from pure subunits, column chromatography.

Assay [4] has as its target Thermus thermophilus DNA polymerase III purified from T.th. cell extracts. Nature of the assay: cell-based or functional assay.

Chain of E. coli Pol III (Escherichia coli) (P10443 whole entry): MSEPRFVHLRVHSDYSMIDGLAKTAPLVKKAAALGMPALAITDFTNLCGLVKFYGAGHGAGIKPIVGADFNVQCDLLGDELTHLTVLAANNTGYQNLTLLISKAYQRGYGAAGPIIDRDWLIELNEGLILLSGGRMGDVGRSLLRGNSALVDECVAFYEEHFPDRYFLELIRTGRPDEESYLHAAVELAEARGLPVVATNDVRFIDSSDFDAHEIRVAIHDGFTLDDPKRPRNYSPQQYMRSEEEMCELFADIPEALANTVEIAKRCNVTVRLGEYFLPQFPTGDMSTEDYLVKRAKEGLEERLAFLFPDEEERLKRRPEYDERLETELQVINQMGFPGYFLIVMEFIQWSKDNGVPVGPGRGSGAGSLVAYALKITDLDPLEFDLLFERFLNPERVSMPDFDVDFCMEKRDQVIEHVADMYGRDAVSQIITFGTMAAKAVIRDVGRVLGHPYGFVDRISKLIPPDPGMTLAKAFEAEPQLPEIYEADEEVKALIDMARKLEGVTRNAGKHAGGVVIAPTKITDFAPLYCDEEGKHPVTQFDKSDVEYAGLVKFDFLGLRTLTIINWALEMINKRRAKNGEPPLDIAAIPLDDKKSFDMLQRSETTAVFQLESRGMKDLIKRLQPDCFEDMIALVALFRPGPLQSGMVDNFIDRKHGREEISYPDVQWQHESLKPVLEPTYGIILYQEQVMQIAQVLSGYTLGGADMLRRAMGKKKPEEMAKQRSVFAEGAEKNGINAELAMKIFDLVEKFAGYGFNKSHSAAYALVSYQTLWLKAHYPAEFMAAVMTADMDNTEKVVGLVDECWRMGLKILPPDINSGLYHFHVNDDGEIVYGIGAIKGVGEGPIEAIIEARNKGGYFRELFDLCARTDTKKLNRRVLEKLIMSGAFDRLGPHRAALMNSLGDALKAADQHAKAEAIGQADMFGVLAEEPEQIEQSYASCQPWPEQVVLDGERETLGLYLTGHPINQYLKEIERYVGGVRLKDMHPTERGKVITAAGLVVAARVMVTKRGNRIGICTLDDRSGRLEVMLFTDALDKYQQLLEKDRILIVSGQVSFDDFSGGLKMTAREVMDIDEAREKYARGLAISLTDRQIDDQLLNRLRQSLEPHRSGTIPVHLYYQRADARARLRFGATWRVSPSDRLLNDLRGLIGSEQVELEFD
Chain of human DNA polymerase delta (human) (P28340 whole entry, stated change not applied): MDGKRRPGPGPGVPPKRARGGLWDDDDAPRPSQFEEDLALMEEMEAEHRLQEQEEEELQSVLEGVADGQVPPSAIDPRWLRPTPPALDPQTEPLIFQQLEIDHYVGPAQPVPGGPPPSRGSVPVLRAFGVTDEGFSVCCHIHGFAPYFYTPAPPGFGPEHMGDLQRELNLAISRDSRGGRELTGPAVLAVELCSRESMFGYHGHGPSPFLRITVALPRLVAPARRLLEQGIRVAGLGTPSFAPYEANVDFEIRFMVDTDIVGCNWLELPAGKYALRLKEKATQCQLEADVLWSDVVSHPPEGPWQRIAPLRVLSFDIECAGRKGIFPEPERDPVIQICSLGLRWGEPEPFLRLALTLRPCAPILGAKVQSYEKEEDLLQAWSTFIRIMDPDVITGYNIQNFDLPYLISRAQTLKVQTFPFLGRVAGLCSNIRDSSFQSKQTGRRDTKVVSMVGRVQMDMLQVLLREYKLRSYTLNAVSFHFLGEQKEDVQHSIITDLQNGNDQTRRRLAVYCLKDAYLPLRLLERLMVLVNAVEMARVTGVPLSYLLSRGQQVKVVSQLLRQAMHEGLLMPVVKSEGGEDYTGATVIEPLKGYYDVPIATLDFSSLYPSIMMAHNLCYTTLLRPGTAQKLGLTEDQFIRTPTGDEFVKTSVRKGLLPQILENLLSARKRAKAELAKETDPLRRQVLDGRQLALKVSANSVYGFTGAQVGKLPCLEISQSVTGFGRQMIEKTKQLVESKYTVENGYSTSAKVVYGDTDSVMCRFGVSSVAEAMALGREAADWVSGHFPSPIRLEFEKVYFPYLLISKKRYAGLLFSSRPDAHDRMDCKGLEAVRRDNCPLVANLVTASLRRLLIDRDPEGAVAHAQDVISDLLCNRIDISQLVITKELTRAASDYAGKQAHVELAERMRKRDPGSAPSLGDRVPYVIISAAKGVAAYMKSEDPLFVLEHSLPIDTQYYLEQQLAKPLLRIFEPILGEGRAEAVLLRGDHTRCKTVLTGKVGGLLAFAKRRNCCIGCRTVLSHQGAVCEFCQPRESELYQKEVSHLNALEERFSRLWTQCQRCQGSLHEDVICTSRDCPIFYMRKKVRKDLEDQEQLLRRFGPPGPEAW

With human PCNA (from UniProt P12004 1-261), in assay [1], the pmol synthesis on oligodT-primed linear polydA, human Polδ with PCNA (lane 4) was 24 pmol and the pmol synthesis on oligodT-primed linear polydA, human Polδ without PCNA (lane 3, baseline) came out at 2 pmol.

In assay [2], “E. coli β subunit (from UniProt P0A988 1-366)” returned a pmol synthesis on oligodT-primed linear polydA, E. coli Pol III with β (lane 2) of 35 pmol and a pmol synthesis on oligodT-primed linear polydA, E. coli Pol III without β (lane 1, baseline) of 6 pmol.

B1: Aquifex aeolicus tau subunit of DNA polymerase III (other)
chain: MNYVPFARKYRPKFFREVIGQEAPVRILKNAIKNDRVAHAYLFAGPRGVGKTTIARILAKALNCKNPSKGEPCGECENCREIDRGVFPDLIEMDAASNRGIDDVRALKEAVNYKPIKGKYKVYIIDEAHMLTKEAFNALLKTLEEPPPRTVFVLCTTEYDKILPTILSRCQRIIFSKVRKEKVIEYLKKICEKEGIECEEGALEVLAHASEGCMRDAASLLDQASVYGEGRVTKEVVENFLGILSQESVRSFLKLLLNSEVDEAIKFLRELSEKGYNLTKFWEMLEEEVRNAILVKSLKNPESVVQNWQDYEDFKDYPLEALLYVENLINRGKVEARTREPLRAFELAVIKSLIVKDIIPVSQLGSVVKETKKEEKKVEVKEEPKVKEEKPKEQEEDRFQKVLNAVDGKILKRILEGAKREERDGKIVLKIEASYLRTMKKEFDSLKETFPFLEFEPVEDKKKPQKSSGTRLF
notes: Recombinant, expressed in E. coli from pETAadnaX (pET24); also called A.ae. tau
B1: in assay [3], the binding result is listed as “binds”.

B2: Thermus thermophilus β subunit, recombinant (protein)
chain: MNITVPKKLLSDQLSLLERIVPSRSANPLYTYLGLYAEEGALILFGTNGEVDLEVRLPAEAQSLPRVLVPAQPFFQLVRSLPGDLVALGLASEPGQGGQLELSSGRFRTRLSLAPAEGYPELLVPEGEDKGAFPLRTRMPSGELVKALTHVRYAASNEEYRAIFRGVQLEFSPQGFRAVASDGYRLALYDLPLPQGFQAKAVVPARSVDEMVRVLKGADGAEAVLALGEGVLALALEGGSGVRMALRLMEGEFPDYQRVIPQEFALKVQVEGEALREAVRRVSVLSDRQNHRVDLLLEEGRILLSAEGDYGKGQEEVPAQVEGPDMAVAYNARYLLEALAPVGDRAHLGISGPTSPSLIWGDGEGYRAVVVPLRVZ
In assay [4], B2 yielded a pmol synthesis on oligodT-primed linear polydA, T.th. Pol III with T.th. β (lane 6) of 1.9 pmol and a pmol synthesis on oligodT-primed linear polydA, T.th. Pol III without T.th. β (lane 5, baseline) of 0.6 pmol.
